According to publication PMC4236683, “Semaphorin 5A inhibits synaptogenesis in early postnatal- and adult-born hippocampal dentate granule cells” (eLife, 2014):

Key:
[1] = molecular target: T1, full-length PlexA1 with an N-terminal 6xMyc tag (mouse, UniProt P70206 28-1894); assay: saturation binding of AP-clustered Fc fusion protein to transfected cells; saturation binding curve of Sema5A-Fc, oligomerized with anti-Fc conjugated to human placental alkaline phosphatase, on COS7 cells expressing PlexA1 or PlexA2; details: one partner purified
T1 construct: Plexin-A1, mouse, full length (FL); written as one molecule; also called PlexinA1; Myc-FL-A1; source: COS7, transiently transfected, on cells; HEK293T, transfected, in lysate; not shown: 6xMyc, N-terminal, kept

[2] = molecular target: T2, full-length PlexA2 with an N-terminal 6xMyc tag (mouse, UniProt P70207 35-1894); assay: as above; details: one partner purified
T2 construct: Plexin-A2, mouse, full length (FL); written as one molecule; also called PlexinA2; Myc-FL-A2; source: COS7, transiently transfected, on cells; HEK293T, transfected, in lysate; not shown: 6xMyc, N-terminal, kept
T2 sequence (P70207 35-1894): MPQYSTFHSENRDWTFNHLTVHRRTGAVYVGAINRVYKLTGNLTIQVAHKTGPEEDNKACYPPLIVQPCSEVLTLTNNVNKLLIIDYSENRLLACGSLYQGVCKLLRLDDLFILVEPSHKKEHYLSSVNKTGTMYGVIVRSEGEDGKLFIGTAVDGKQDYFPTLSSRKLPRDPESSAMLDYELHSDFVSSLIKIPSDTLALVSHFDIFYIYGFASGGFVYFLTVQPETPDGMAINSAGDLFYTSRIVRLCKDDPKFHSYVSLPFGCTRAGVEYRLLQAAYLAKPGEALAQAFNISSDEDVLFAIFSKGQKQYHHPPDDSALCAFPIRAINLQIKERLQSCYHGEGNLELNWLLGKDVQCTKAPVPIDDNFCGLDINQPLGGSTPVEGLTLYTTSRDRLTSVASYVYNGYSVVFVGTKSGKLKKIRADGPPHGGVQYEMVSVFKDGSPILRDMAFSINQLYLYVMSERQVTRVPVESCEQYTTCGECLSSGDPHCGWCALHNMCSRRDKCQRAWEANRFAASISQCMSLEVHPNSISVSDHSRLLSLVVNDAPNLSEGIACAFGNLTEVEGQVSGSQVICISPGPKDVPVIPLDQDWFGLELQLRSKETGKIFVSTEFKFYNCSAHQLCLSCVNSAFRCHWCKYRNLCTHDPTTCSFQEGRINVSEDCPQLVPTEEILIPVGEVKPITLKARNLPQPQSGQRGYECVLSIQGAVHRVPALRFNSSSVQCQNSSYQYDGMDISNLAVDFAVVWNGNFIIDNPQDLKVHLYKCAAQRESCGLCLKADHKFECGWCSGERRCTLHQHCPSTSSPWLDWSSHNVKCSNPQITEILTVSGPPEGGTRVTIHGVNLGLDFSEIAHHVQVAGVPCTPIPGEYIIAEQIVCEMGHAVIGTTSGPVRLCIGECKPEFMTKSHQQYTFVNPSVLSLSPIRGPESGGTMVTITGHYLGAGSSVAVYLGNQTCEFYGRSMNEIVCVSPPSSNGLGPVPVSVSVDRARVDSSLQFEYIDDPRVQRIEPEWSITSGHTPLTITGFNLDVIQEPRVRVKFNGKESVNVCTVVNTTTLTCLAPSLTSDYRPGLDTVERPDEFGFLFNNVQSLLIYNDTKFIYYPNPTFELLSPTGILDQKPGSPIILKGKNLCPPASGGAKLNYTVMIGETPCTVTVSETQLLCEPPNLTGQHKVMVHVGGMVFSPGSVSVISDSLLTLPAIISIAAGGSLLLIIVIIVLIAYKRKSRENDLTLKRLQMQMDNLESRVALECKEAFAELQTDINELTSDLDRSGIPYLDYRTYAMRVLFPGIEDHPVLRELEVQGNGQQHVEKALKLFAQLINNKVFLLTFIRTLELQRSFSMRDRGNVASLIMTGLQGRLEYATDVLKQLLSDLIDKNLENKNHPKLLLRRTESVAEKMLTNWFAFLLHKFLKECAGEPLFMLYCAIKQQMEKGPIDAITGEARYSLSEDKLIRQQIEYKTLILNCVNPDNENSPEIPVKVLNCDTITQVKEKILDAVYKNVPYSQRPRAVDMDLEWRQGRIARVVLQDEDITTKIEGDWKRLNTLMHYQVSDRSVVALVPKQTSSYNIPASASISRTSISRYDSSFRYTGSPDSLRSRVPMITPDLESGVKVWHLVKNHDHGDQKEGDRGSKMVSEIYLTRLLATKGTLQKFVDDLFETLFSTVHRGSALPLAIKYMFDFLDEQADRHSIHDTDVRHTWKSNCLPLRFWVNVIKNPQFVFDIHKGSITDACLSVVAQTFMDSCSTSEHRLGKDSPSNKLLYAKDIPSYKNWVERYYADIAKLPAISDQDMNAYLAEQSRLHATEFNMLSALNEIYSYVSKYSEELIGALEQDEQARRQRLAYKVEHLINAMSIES

T1 sequence (P70206 28-1894): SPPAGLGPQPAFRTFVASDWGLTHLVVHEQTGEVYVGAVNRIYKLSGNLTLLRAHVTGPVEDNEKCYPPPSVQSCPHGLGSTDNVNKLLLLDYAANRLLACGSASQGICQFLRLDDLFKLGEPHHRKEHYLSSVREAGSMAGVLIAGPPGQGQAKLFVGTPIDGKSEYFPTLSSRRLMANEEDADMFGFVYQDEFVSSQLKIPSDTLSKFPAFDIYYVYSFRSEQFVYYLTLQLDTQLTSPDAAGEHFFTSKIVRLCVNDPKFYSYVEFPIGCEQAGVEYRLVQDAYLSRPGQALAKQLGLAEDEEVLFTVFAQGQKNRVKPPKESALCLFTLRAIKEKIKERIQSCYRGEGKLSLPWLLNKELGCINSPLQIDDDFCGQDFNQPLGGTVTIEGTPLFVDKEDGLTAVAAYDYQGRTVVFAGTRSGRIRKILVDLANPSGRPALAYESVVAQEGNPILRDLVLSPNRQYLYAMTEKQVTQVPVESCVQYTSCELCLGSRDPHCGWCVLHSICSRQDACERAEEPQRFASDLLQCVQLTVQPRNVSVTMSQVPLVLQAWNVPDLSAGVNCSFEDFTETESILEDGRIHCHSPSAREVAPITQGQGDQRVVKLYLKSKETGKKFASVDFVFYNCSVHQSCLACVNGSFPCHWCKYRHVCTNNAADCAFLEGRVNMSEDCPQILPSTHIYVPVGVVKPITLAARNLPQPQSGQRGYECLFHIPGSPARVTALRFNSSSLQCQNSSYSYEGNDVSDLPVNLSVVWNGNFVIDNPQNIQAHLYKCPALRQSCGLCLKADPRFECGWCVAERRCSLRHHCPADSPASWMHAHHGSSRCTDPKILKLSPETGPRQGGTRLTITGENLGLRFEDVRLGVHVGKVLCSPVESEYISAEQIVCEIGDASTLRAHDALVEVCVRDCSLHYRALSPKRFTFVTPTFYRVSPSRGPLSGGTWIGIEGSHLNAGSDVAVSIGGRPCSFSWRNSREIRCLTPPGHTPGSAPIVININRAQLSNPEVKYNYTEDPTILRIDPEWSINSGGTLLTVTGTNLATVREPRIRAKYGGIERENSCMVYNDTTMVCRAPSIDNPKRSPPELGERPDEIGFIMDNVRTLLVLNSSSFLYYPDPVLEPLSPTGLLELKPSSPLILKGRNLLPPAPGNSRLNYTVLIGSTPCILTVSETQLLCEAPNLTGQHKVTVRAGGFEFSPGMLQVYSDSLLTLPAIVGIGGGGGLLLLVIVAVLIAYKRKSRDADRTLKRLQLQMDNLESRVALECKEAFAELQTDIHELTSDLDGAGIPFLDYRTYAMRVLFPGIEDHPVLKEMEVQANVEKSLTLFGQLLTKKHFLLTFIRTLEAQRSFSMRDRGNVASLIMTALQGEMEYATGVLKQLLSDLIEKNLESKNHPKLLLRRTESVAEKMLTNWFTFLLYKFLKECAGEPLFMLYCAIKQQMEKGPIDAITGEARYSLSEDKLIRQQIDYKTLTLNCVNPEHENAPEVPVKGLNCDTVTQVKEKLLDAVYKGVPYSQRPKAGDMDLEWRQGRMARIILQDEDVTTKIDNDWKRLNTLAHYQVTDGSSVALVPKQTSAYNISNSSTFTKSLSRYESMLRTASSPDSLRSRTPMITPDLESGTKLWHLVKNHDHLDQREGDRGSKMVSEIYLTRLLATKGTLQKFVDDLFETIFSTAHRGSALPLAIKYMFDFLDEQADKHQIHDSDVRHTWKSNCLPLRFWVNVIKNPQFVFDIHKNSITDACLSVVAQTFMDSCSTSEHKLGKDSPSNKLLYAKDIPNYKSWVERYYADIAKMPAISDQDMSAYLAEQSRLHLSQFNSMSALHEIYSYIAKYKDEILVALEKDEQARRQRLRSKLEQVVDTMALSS

Kd [1]: 10 nM
Kd [2]: 13 nM
B1: Sema5A-Fc (Sema5A ectodomain fused to Fc) (Fc fusion, rat, UniProt D3ZTD8 23-961, looked up)
chain: ETQDPAKCQRAEHPVVSYKEIGPWLREFRAENAVDFSRLTFDPGQKELVVGARNYLFRLQLEDLSLIQAVQWECDEATKKACYSKGKSKEECQNYIRVLLVGGDRLFTCGTNAFTPVCTIRSLSNLTEIHDQISGMARCPYSPQHNSTALLTASGELYAATAMDFPGRDPAIYRSLGTLPPLRTAQYNSKWLNEPNFVSSYDIGNFTYFFFRENAVEHDCGKTVFSRAARVCKNDIGGRFLLEDTWTTFMKARLNCSRPGEVPFYYNELQSTFFLPELDLIYGIFTTNVNSIAASAVCVFNLSAISQAFNGPFKYQENSRSAWLPYPNPNPNFQCGTMDQGLYVNLTERNLQDAQKFILMHEVVQPVTTVPSFMEDNSRFSHVAVDVVQGRDTLVHIIYLATDYGTIKKVRAPLSQSSGSCLLEEIELFPERKSEPIRSLKILHSQSVLFVGLQEHVVKIPLKRCHFHQTRGACIGAQDPYCGWDAVMKKCTSLEESLSMTQWDQSVPTCPTRNLTVDGSFGPWSPWTPCTHTDGTAVGSCLCRSRSCDSPAPQCGGWQCEGPRMEITNCSRNGGWTPWTSWSPCSTTCGIGFQVRQRSCSNPTPRHGGRVCVGQNREERYCNEHLLCPPHVFWTGWGPWERCTAQCGGGIQARRRTCENGPDCAGCNVEYQPCNTNACPELKKTTPWTPWTPVNISDNGGHYEQRFRYTCKARLPDPNLLEVGRQRIEMRYCSSDGTSGCSTDGLSGDFLRAGRYSAHTVNGAWSAWTSWSQCSRDCSRGIRNRKRVCNNPEPKYGGMPCLGPSLEFQECNILPCPVDGVWSCWSSWSKCSATCGGGHYMRTRSCTNPAPAYGGDICLGLHTEEALCNTQTCPENWSEWSEWSVCDASGTQVRTRQCILLFPVGSQCSGNTTESRPCVFDSNFIPEVSVARSSSVEEK
notes: signal peptide in the construct; Sema5A ectodomain, rat cDNA NM_001107659, residues 1-961; Assembled in pcDNA3.0; also called Fc-tagged Sema5A ectodomain protein
